# Experimental data as given in US20210230570.
# Columns and labels:
# Factor X (FX) = Factor X (FX) (UniProt P00742)
# Factor X = Factor X (UniProt P00742)
# [1] = tested on: Antithrombin III (AT-III), plasma purified human, in complex with full-length unfractionated heparin (UFH)
# [2] = tested on: plasma purified human AT-III (antithrombin III), in complex with low molecular weight heparin; experiment: same assay; ratio of K0.5 to that of Catalyst Biosciences WT FIXa
# [3] = target: Factor X (FX), active site titrated and DFP/EGR-cmk treated zymogen (UniProt P00742)
# Factor X (FX), active site titrated and DFP/EGR-cmk treated zymogen, sequence (P00742 41-488): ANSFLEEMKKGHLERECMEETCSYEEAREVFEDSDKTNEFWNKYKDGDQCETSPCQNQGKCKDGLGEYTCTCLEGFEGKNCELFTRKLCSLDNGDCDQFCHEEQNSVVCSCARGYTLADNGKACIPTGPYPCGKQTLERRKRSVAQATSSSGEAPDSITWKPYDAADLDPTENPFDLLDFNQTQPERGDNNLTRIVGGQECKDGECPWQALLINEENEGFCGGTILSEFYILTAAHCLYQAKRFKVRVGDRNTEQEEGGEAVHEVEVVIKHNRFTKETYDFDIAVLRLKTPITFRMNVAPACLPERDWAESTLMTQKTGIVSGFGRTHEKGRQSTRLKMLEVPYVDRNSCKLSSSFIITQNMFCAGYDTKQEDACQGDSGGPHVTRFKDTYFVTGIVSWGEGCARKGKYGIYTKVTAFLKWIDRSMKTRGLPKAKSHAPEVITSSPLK
# Factor X (FX), sequence (P00742 41-488): as above
# Factor X, sequence (P00742 41-488): as above
substance,measurement,setting,value
FIXa-S53A,% of WT (kcat/KM),Factor X (FX),76%
same,kcat/KM (M^-1s^-1),Factor X (FX),3.5e+07 M⁻¹ s⁻¹
same,kcat,Factor X,3.7 s⁻¹
FIXa-K5A,kcat,Factor X,3.5 s⁻¹
FIXa A103N/N105S/Y155F,K0.5,[1],11 nM
same,K0.5-mut/K0.5-wt,[1],0.6
FIXa T159A,K0.5,[1],33 nM
FIXa-D64N,kcat/KM (M^-1s^-1),Factor X (FX),1e+07 M⁻¹ s⁻¹
same,kcat,Factor X,1.2 s⁻¹
FIXa-A103N/N105S/Y155F,% of WT (kcat/KM),Factor X (FX),85%
same,kcat/KM (M^-1s^-1),Factor X (FX),3.9e+07 M⁻¹ s⁻¹
same,kcat,Factor X,3.2 s⁻¹
Plasma Purified FIXa,K0.5,[1],30 nM
"BeneFIX Coagulation Factor IX (Recombinant), activated (FIXa)",K0.5-mut/K0.5-wt,[2],0.9
FIXa A103N/N105S (A[103]N/N[105]S by chymotrypsin numbering),kcat,[3],3.1 s⁻¹
FIXa N157Q,K0.5,[1],16 nM
FIXa D64A,K0.5,[1],16 nM
same,K0.5-mut/K0.5-wt,[1],0.8
FIXa D104N/K106S,K0.5,[1],20 nM
same,K0.5-mut/K0.5-wt,[1],1
FIXa-D104N/K106S/Y155F,% of WT (kcat/KM),Factor X (FX),78%
same,kcat/KM (M^-1s^-1),Factor X (FX),3.6e+07 M⁻¹ s⁻¹
same,kcat,Factor X,2.9 s⁻¹
FIXa Y155F,K0.5,[1],13 nM
FIXa Y155H,K0.5,[1],25 nM
FIXa-S61A,% of WT (kcat/KM),Factor X (FX),105%
same,kcat/KM (M^-1s^-1),Factor X (FX),4.8e+07 M⁻¹ s⁻¹
FIXa-D64A,kcat/KM (M^-1s^-1),Factor X (FX),2.5e+06 M⁻¹ s⁻¹
same,kcat,Factor X,0.3 s⁻¹
FIXa-D85N,% of WT (kcat/KM),Factor X (FX),153%
same,kcat/KM,Factor X (FX),7e+07 M⁻¹ s⁻¹
same,kcat/KM (M^-1s^-1),Factor X (FX),7.3e+07 M⁻¹ s⁻¹
same,kcat,Factor X,4.1 s⁻¹
same,K0.5-mut/K0.5-wt,[2],1.1
FIXa S61A,K0.5,[1],19 nM
same,K0.5-mut/K0.5-wt,[1],1
FIXa A103N/N105S/Y155F (A[103]N/N[105]S/Y[155]F by chymotrypsin numbering),kcat,[3],3.2 s⁻¹
FIXa Y155Q,K0.5,[1],23 nM
FIXa D85N,K0.5,[1],17 nM
same,K0.5-mut/K0.5-wt,[1],0.9
FIXa S53A,K0.5,[1],27 nM
same,K0.5-mut/K0.5-wt,[1],1.4
FIXa D85N (D[85]N by chymotrypsin numbering),kcat,[3],4.2 s⁻¹
FIXa S53A (S[53]A by chymotrypsin numbering),kcat,[3],3.7 s⁻¹
FIXa A103N/N105S,K0.5,[1],20 nM
same,K0.5-mut/K0.5-wt,[1],1
FIXa T169A,K0.5,[1],17 nM
FIXa-D104N/K106S,% of WT (kcat/KM),Factor X (FX),83%
same,kcat/KM (M^-1s^-1),Factor X (FX),3.8e+07 M⁻¹ s⁻¹
same,K0.5-mut/K0.5-wt,[2],0.9
FIXa D64N (D[64]N by chymotrypsin numbering),kcat,[3],1.2 s⁻¹
FIXa T172A,K0.5,[1],16 nM
FIXa K5A (K[5]A by chymotrypsin numbering),kcat,[3],3.1 s⁻¹
FIXa D104N/K106S/Y155F (D[104]N/K[106]S/Y[155]F by chymotrypsin numbering),kcat,[3],2.9 s⁻¹
FIXa-A103N/N105S,K0.5-mut/K0.5-wt,[2],1.1
FIXa N157D,K0.5,[1],17 nM
FIXa D64A (D[64]A by chymotrypsin numbering),kcat,[3],0.3 s⁻¹
FIXa K5A,KM,Factor X (FX),0.0654 µM
same,K0.5,[1],22 nM
same,K0.5-mut/K0.5-wt,[1],1.2
FIXa D104N/K106S/Y155F,K0.5,[1],6 nM
same,K0.5-mut/K0.5-wt,[1],0.3
FIXa N167Q,K0.5,[1],12 nM
FIXa-K106N/V108S,% of WT (kcat/KM),Factor X (FX),60%
same,kcat/KM (M^-1s^-1),Factor X (FX),2.8e+07 M⁻¹ s⁻¹
same,kcat,Factor X,2.5 s⁻¹
same,K0.5-mut/K0.5-wt,[2],1.6
FIXa N167D,K0.5,[1],12 nM
FIXa S158E,K0.5,[1],14 nM
FIXa D104N/K106S (D[104]N/K[106]S by chymotrypsin numbering),kcat,[3],3.1 s⁻¹
FIXa S158D,K0.5,[1],15 nM
